What was measured:
[1] = cited from earlier work
[2] = system: human embryonic stem cells; assay: Notch signaling inhibition, C-peptide positive cells by immunohistochemistry; assay type: cell-based; settings: added day 9-18 of differentiation; cells fixed at day 21; FIG. 7
Protocol: In order to increase the percentage of Pdx-1 and C-peptide producing cells, the cells from Example 1 were rinsed twice with PBS and then cultured in a culture medium (2% 8-27, 1×Glutamax, 1×NEAA, 1×13-mercaptoethanol in RPMI 1640 (RPMI)) comprising 50 ng/ml Activin A and 50 ng/ml BMP4 for 3 days. The medium was then changed to a medium comprising 50 ng/ml Activin A in RPMI and incubated for 3 days. The cells were then cultured in a medium comprising 3 μM RA, 50 ng/ml FGF2, 1 μM SANT-1 and 10 mM Nicotinamide in RPMI for 6 days with the medium changed every 2-3 days. Notch signaling in the cells was then inhibited by the addition of Gamma Secretase Inhibitor X (DAPT) from day 9-18 of differentiation.
Plate-based immunohistochemistry was performed using standard techniques. Cells were fixed in 4% PFA in PBS for 30 min, washed with PBS and incubated in blocking solution consisting of 10% FCS and 0.1% Triton X-100 in PBS for 1 hr. Cells were incubated overnight at 4 ° C. with the primary antibody diluted in blocking solution. Examples of primary antibodies and their dilutions used include: guinea pig anti-Pdx-1 (1:10,000), rabbit anti-C-peptide (Linea, 1:1,000), goat anti-Sox17 (R & D systems, 1:100), goat anti-FoxA2 (R & D systems 1:100) and mouse anti-Oct4 (Santacruz, 1:100). […]

[3] = system: ESI035, ESI049, ESI051 and HES-3; assay: Effect of early growth factors, Pdx-1 RT-PCR; assay type: cell-based, human; settings: day 18; early factors per Table 2; compared to cells only treated with Activin A; FIG. 5
From the text: The effect of early differentiation factors was examined by differentiating cell lines ESI035, ESI049, ESI051 and HES-3 in 24-well plates in six varying cultures and harvesting them for analysis using immunohistochemistry and Quantitative RT-PCR analysis on day 18 and day 30 of differentiation. The culture medium (1×Glutamax, 1×NEAA, 1×13-mercaptoethanol in RPMI 1640 (RPMI)) was supplemented with other factors summarized in table 2 below. The medium was changed every 2-3 days.
As the effect of FGF2 as an early growth factor varied depending on the cell line used, no conclusion was derived with regard to the effect of an early dose of FGF2 on the expression of Pdx-1.
(§1) Total RNA from hESC at various stages of differentiation was isolated using the Qiagen RNeasy kit […] according to the manufacturer's instructions. RNA was quantified by UV absorption. 1 to 5 μg of RNA was DNase I treated and converted to cDNA using M-MuIV reverse transcriptase (New England Biolabs) using random hexamer primers according to the manufacturer's instructions. Quantitative PCR (RT-PCR) was performed according to the manufacturer's instructions using a BioRad iCycler with approximately 50 ng cDNA per reaction containing 250 nM of each primer and 1×SYBR green master mix (Bio-Rad) and analyzed by Bio-RAD thermocycler.

[4] = system: ESI035, ESI049 and ESI051; assay: Screen of maturation growth factors, immunohistochemistry for C-peptide and Pdx-1; assay type: cell-based, human; settings: day 18
From the text: The effect of maturation growth factors was examined by differentiating cell lines ESI035, ESI049 and ES1051 from Example 1 in 96-well plates in two varying cultures and harvesting them for analysis using immunohistochemistry on day 18 of differentiation. The culture medium (1×Glutamax, 1×NEAA, 1×f3-mercaptoethanol in RPMI 1640 (RPMI)) were supplemented with other factors summarized in Table 4 below. The notable changes to the differentiation protocol used here compared to that used in Example 4 were the shortened period of endoderm induction and the addition of nicotinamide from day 6 of differentiation. The medium was changed every 2-3 days. A list of growth factors (G.F) were tested according to the protocol described in Table 4. […] There were added at two time points. […] None of the added growth factors had any consistent effect on cell viability, C-peptide expression and Pdx-1 expression. Plate-based immunohistochemistry was performed using standard techniques. Cells were fixed in 4% PFA in PBS for 30 min, washed with PBS and incubated in blocking solution consisting of 10% FCS and 0.1% Triton X-100 in PBS for 1 hr. Cells were incubated overnight at 4 ° C. with the primary antibody diluted in blocking solution. […]

[5] = system: mix of cell lines, ESI017 and ESI035; assay: Definitive endoderm time course, real-time PCR of Sox17 and FoxA2; assay type: cell-based, human
Protocol: The effects of Activin A with and without BMP4 on the expression of markers of definitive endoderm were examined. Activin A and BMP4 were added to a mix of cell lines, ESI017 and ESI035, of Example 1 after the cells had been washed twice with PBS. Four groups of cells were then cultured in four different conditions:
1) 50 ng/ml Activin A and 50 ng/ml BMP4 in a culture medium (2% B-27, 1×Glutamax, 1×NEAA, 1×J3-mercaptoethanol in RPMI 1640 (RPMI)) for 3 days followed by treatment with Activin A (50 ng/ml) in RPMI.
2) 50 ng/ml Activin A and 50 ng/ml BMP4 in RPMI for about 6 hours followed by treatment with Activin A (50 ng/ml) in RPMI.
3) 50 ng/ml Activin A in RPMI.
4) 10% KOSR in RPMI (negative control).
The cells were cultured continuously and a sample harvested daily. The medium was changed every 2-3 days. Real-time PCR was performed as described in Example 9.
as §1, with “1 to 5 μg of RNA was DNase I treated and converted to cDNA using M-MuIV reverse transcriptase (New England Biolabs) using random hexamer primers according to the manufacturer's instructions.” left out

Molecule: C-peptide
- half-life [1]: about 30 minutes

Molecule: CC(C)C[C@H](NC(=O)[C@H](Cc1ccccc1)C[C@@H](O)[C@H](Cc1ccccc1)NC(=O)OC(C)(C)C)C(=O)N[C@@H](Cc1ccccc1)C(N)=O [Gamma Secretase Inhibitor X]
- Concentration resulting in a significant number of C-peptide positive cells [2]: over 10 μM

Molecule: FGF2: member of the FGF family
- Pdx-1 expression (RT-PCR) [3]: did not result in the same effect on Pdx-1 expression in all four cell lines

B1: BMP4: secreted polypeptide belonging to the BMP subgroup of the TGF-superfamily (protein, UniProt P12644 293-408, looked up)
Bone morphogenetic protein 4: SPKHHSQRARKKNKNCRRHSLYVDFSDVGWNDWIVAPPGYQAFYCHGDCPFPLADHLNSTNHAIVQTLVNSVNSSIPKACCVPTELSAISMLYLDEYDKVVLKNYQEMVVEGCGCR
- Pdx-1 positive cells ([4]; BMP4 treated plates compared to plates not BMP4 treated): more Pdx-1 positive cells
- frequency of C-peptide positive cells ([4]; initially cultured in medium comprising BMP4 vs Activin only): higher frequency of C-peptide positive cells
- FoxA2 expression ([5]; addition of 50 ng/ml BMP4 to Activin A, up to day 10, FIG. 2B): did not appear to greatly affect FoxA2 expression

B2: Activin A: protein of the TGF-superfamily (protein, UniProt P08476 311-426, looked up)
Inhibin beta A chain: GLECDGKVNICCKKQFFVSFKDIGWNDWIIAPSGYHANYCEGECPSHIAGTSGSSLSFHSTVINHYRMRGHSPFANLKSCCVPTKLRPMSMLYYDDGQNIIKKDIQNMIVEECGCS
modifications: Inhibin beta A chain
notes: protein of the TGF-superfamily
- expression of Sox17 mRNA ([5]; 50 ng/ml each in RPMI, daily samples, FIG. 2A): weak expression of Sox17 until day 6

Source: US20180155693A1, “Method of Differentiating Stem Cells” (BioTime, Inc., priority 2008, published 2018)
